Legend:
cynomolgus IL-1β [1] = biological target: T1, cynomolgus IL-1β (cynomolgus macaque, UniProt P79182 117-268); assay: cell-based or functional assay
T1 sequence (looked up): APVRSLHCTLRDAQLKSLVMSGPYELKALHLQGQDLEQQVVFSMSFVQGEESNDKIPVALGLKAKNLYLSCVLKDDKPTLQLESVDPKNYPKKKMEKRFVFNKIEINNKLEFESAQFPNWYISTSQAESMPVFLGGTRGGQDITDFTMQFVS

human IL-1β [2] = biological target: T2, human IL-1β (human, UniProt P01584 117-269); assay: cell-based or functional assay
human IL-1β [3] = biological target: T2, human IL-1β; assay: cell-based or functional assay; remark: listed apart in the source
human IL-1β [4] = biological target: T2, human IL-1β; assay: cell-based or functional assay; remark: listed apart in the source
rat IL-1β = biological target: T3, rat IL-1β (rat, UniProt Q63264 117-268); assay: SPR, Biacore 8K, mAb captured on anti-human Fc chip, soluble IL-1β as analyte
T3 construct: also called rat IL-β
T3 sequence (looked up): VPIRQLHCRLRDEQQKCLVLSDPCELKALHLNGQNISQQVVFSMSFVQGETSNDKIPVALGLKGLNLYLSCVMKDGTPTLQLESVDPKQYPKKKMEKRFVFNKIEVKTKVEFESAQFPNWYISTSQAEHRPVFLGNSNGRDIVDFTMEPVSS
Experimental: (§1) Affinity assessment of 05H21A, 15N14A, and 08F17A against human IL-1β was performed by Surface Plasmon Resonance (SPR) using a Biacore 8k. Cross-reactivity of the same antibody panel was also assessed against cyno, mouse, rat and pig IL-1β.
(§2) SPR is a label-free technique to study the strength of an interaction between two binding partners by measuring the change in mass upon complex formation and dissociation. Briefly, antibodies were immobilized on a sensor chip which was coupled with goat anti-human Fc (GAH-Fc C1 sensor chip). Soluble IL-1β was flowed over the immobilized antibody and association/dissociation responses were monitored. Kinetic information (on-rate and off-rate constants) were extracted by fitting sensorgrams to the 1:1 Langmuir model. Binding affinity (KD) were reported as the ratio of rate constants (koff/kₒₙ).

mouse IL-1β = biological target: T4, mouse IL-1β (mouse, UniProt P10749 118-269); assay: as above
T4 construct: also called mouse IL-β
T4 sequence (looked up): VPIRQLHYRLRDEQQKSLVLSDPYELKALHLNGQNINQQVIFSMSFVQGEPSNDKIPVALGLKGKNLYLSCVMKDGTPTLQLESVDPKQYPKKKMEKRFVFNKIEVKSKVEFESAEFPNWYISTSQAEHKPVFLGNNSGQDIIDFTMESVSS
Experimental: as §1, §2

pig IL-1β = biological target: T5, pig IL-1β (pig, UniProt P26889 115-267); assay: as above
T5 construct: also called pig IL-β
T5 sequence (looked up): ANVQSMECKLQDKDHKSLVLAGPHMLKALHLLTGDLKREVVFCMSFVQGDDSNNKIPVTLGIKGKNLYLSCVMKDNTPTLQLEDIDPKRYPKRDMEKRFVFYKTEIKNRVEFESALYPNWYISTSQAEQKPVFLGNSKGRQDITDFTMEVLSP
Experimental: as §1, §2

cynomolgus IL-1β [5] = biological target: T1, cynomolgus IL-1β; assay: SPR, Biacore 8K, mAb captured on goat anti-human Fc C1 chip, soluble IL-1β as analyte, 1:1 Langmuir fit
Experimental: as §1, §2

human IL-1β [6] = biological target: T2, human IL-1β; assay: as above
Experimental: as §1, §2

B1: 08F17A (antibody, human IgG1, kappa, V domains shown)
VH: EVQLVESGGGLVTPGGSLRLSCAASGFTFSGYSMNWVRQAPGKGLEWVSSISSSSGYIYYADSVKGRFTISRDNAKNSLYLQMNSLRAEDTAVYYCAREYWGSGFDYWGQGTLVTVSS
VL: DIQMTQSPSSLSASVGDRVTITCRASQGISYYLAWYQQKPGKVPKLLISAEFTLQSGVPSRFSGSGSGTDFTLTISSLQPEDVATYYCQKYNTAPRTFGQGTKVEIKR
notes: Kappa light chain; also called 08F17A (anti-IL-1β) mAb [IgG1: YTE]
B1 was tested, and the “IC30, inhibition of G-CSF release, cynomolgus lung fibroblasts (CLF), 15 pM rcynoIL-1β” value (cynomolgus IL-1β [1]) was 3.58 nM, the “IC30, inhibition of IL-6 release, cynomolgus dermal fibroblasts (CDF), 5 pM rcynoIL-1β” value (cynomolgus IL-1β [1]) was 2.72 nM and the “IC30, inhibition of IL-6 release, cynomolgus lung fibroblasts (CLF), 15 pM rcynoIL-1β” value (cynomolgus IL-1β [1]) was 3.44 nM. For the same binder, the “IC50, inhibition of G-CSF release, cynomolgus dermal fibroblasts (CDF), 5 pM rcynoIL-1β” value (cynomolgus IL-1β [1]) was 3.24 nM, the “IC50, inhibition of G-CSF release, cynomolgus lung fibroblasts (CLF), 15 pM rcynoIL-1β” value (cynomolgus IL-1β [1]) was 6.11 nM and the “IC50, inhibition of IL-6 release, cynomolgus dermal fibroblasts (CDF), 5 pM rcynoIL-1β” value (cynomolgus IL-1β [1]) was 5.1 nM. The “IC50, inhibition of IL-6 release, cynomolgus lung fibroblasts (CLF), 15 pM rcynoIL-1β” value (cynomolgus IL-1β [1]) was 6.97 nM, the “IC90, inhibition of G-CSF release, cynomolgus lung fibroblasts (CLF), 15 pM rcynoIL-1β” value (cynomolgus IL-1β [1]) was 24.3 nM and the “IC90, inhibition of IL-6 release, cynomolgus dermal fibroblasts (CDF), 5 pM rcynoIL-1β” value (cynomolgus IL-1β [1]) was 25.9 nM. For the same binder, the “IC90, inhibition of IL-6 release, cynomolgus lung fibroblasts (CLF), 15 pM rcynoIL-1β” value (cynomolgus IL-1β [1]) was 43.6 nM, the “IC30, inhibition of rhIL-1β-induced CXCL5 release, human whole blood (5 donors)” value (human IL-1β [2]) was 1.33 nM and the “IC30, inhibition of rhIL-1β-induced G-CSF release, human whole blood (5 donors)” value (human IL-1β [2]) was 0.704 nM. For the same binder, the “IC30, inhibition of rhIL-1β-induced IL-6 release, human whole blood (5 donors)” value (human IL-1β [2]) was 0.872 nM, the “IC50, inhibition of rhIL-1β-induced CXCL5 release, human whole blood (5 donors)” value (human IL-1β [2]) was 2.86 nM and the “IC50, inhibition of rhIL-1β-induced G-CSF release, human whole blood (5 donors)” value (human IL-1β [2]) was 1.31 nM. The “IC50, inhibition of rhIL-1β-induced IL-6 release, human whole blood (5 donors)” value (human IL-1β [2]) was 1.53 nM, the “IC90, inhibition of rhIL-1β-induced CXCL5 release, human whole blood (5 donors)” value (human IL-1β [2]) was 20.8 nM and the “IC90, inhibition of rhIL-1β-induced G-CSF release, human whole blood (5 donors)” value (human IL-1β [2]) was 6.58 nM. The “IC90, inhibition of rhIL-1β-induced IL-6 release, human whole blood (5 donors)” value (human IL-1β [2]) was 6.56 nM, the “IC30, inhibition of rhIL-1β-induced cytokine release, NHDF donor 29114” value (human IL-1β [3]) was 0.087 nM and the “IC30, inhibition of rhIL-1β-induced cytokine release, NHLF donor 34325” value (human IL-1β [3]) was 0.127 nM. For the same binder, the “IC30, inhibition of rhIL-1β-induced cytokine release, NHLF donor 35234” value (human IL-1β [3]) was 0.09 nM, the “IC50, inhibition of rhIL-1β-induced cytokine release, NHDF donor 29114” value (human IL-1β [3]) was 0.174 nM and the “IC50, inhibition of rhIL-1β-induced cytokine release, NHLF donor 34325” value (human IL-1β [3]) was 0.293 nM. The “IC50, inhibition of rhIL-1β-induced cytokine release, NHLF donor 35234” value (human IL-1β [3]) was 0.207 nM, the “IC90, inhibition of rhIL-1β-induced cytokine release, NHDF donor 29114” value (human IL-1β [3]) was 1.07 nM and the “IC90, inhibition of rhIL-1β-induced cytokine release, NHLF donor 34325” value (human IL-1β [3]) was 2.55 nM. The “IC90, inhibition of rhIL-1β-induced cytokine release, NHLF donor 35234” value (human IL-1β [3]) was 1.8 nM, the “IC30, inhibition of IL-6 release, human PBMCs (n=5 donors), 10 pM rhIL-1β” value (human IL-1β [4]) was 52 pM and the “IC30, inhibition of IL-6 release, human PBMCs (n=5 donors), 30 pM rhIL-1β” value (human IL-1β [4]) was 0.156 nM. The “IC50, inhibition of IL-6 release, human PBMCs (n=5 donors), 10 pM rhIL-1β” value (human IL-1β [4]) was 92 pM, the “IC50, inhibition of IL-6 release, human PBMCs (n=5 donors), 30 pM rhIL-1β” value (human IL-1β [4]) was 0.241 nM and the “IC90, inhibition of IL-6 release, human PBMCs (n=5 donors), 10 pM rhIL-1β” value (human IL-1β [4]) was 0.402 nM. The “IC90, inhibition of IL-6 release, human PBMCs (n=5 donors), 30 pM rhIL-1β” value (human IL-1β [4]) was 0.744 nM, the binding result (rat IL-1β) was “no binding” and the binding result (mouse IL-1β) was “no binding”. For the same binder, the binding result (pig IL-1β) was “no binding”, the Kd (cynomolgus IL-1β [5]) was 1.71 nM and the koff (cynomolgus IL-1β [5]) was 0.000295 s⁻¹. The kon (cynomolgus IL-1β [5]) was 172000 M⁻¹ s⁻¹ and the Kd (human IL-1β [6]) was 0.18 nM.

Source: patent US20230227545A1 (published 2023)
